# Test results reported in article PMC7162537.
# Target: BRCA1 (UniProt P38398)
# Test: anti-GFP co-IP from nuclear extract, blot
# Conditions: reference: wild type GFP-CtIP; sites S327
substance,measurement,value
CtIP (from UniProt Q99708) S327A,binding against the reference,lost
